Source: patent US20240343806A1

Molecular target: mouse CTLA4 (mouse) (UniProt P09793)
Assay: flow cytometry on CHO-mCTLA4 cells; SSC vs Anti-Human-IgGFc-FITC

Chain of mouse CTLA4 (mouse) (P09793 36-223 S182T limits assumed): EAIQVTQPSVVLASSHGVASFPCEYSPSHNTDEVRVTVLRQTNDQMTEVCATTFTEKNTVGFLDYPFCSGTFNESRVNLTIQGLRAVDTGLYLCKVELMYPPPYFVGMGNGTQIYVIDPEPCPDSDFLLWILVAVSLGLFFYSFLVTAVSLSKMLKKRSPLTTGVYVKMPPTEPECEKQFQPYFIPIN

% cells in the FITC-positive gate: 0.133%
Substance: NC
